The target in assay [1] is CGL1 (preparation not told: native or recombinant) (Crassostrea gigas). Kind of assay: dynamic light scattering (DLS) + other: small angle X-ray scattering (SAXS); in an aqueous solution.
The target in a further assay is T1, nCGL1 (native CGL1) (Magallana gigas, UniProt K1QRB6).
T1 construct: gene CGI_10011001; native purification from oyster bodies (mannose-Cellulofine)
Kind of assay: isothermal titration calorimetry. It is filed as binding. The settings on record: read-out: K / × 10^3 M^-1 (converted). From the text:
isothermal titration calorimetry on nCGL1 (native CGL1)
On the technique in general: ITC needs no label: the signal is the heat of the interaction.

As to “CGL1 (preparation not told: native or recombinant) (natural protein)”, the stoichiometry N in assay [1] was 2.

Consider `CO[C@H]1O[C@H](CO)[C@@H](O)[C@H](O)[C@@H]1O` [α-MeMan], for which the Kd on nCGL1 (native CGL1) was 671 µM.

By stoichiometry N is commonly meant a count of units in the complex or per binding partner.
